Our source for the reduction in transport (oral delivery of 125I-labelled protein into neonatal rat serum) in the presence of 300-fold excess unlabeled human IgG1, by phosphorimage analysis values is patent publication US20050186662A1.

The experiment has as its target neonatal Fc receptor (FcRn) of the neonatal rat small intestine (rat) (UniProt P13599). As to the kind of experiment: cell-based or functional assay.
UniProt P13599, sequence (P13599 23-366, form in doubt): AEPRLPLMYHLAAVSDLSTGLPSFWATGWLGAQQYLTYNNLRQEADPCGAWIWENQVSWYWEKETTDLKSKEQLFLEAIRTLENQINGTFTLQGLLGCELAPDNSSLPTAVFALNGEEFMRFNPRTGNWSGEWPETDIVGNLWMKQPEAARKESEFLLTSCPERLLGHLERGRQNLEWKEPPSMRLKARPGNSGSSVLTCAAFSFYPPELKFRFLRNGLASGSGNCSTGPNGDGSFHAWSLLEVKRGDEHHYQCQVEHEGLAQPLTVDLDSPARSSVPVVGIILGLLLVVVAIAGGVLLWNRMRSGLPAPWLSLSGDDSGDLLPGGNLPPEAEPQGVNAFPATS

In the case of heterodimer FSH-Fc (Fc fusion), the reduction in transport (oral delivery of 125I-labelled protein into neonatal rat serum) in the presence of 300-fold excess unlabeled human IgG1, by phosphorimage analysis is 53%.

As for “single-chain FSH-Fc (from UniProt P01225 19-129; P01215 25-116) (Fc fusion)”, the reduction in transport (oral delivery of 125I-labelled protein into neonatal rat serum) in the presence of 300-fold excess unlabeled human IgG1, by phosphorimage analysis came to 83%.
